Legend:
[1] = target: alpha V integrins (αvβ3 and αvβ5) on human cells (human) (UniProt P06756); assay: cell-based or functional assay
[2] = target: αvβ5 integrin on human cells (human) (UniProt P06756); assay: radiolabeled antibody binding on M21 cells (n = 2)
[3] = target: αvβ5 integrin on human cells (human) (UniProt P06756); assay: radiolabeled antibody binding on A375S2 cells (n = 4)
[4] = target: αvβ5 integrin on human cells (human) (UniProt P06756); assay: cell-based or functional assay
[5] = target: αvβ5 integrin on human cells (human) (UniProt P06756); assay: radiolabeled antibody binding on HT-29 cells (n = 1)
[6] = target: αvβ3 integrin on human cells (human) (UniProt P06756); assay: cell-based or functional assay
[7] = target: αvβ3 integrin on human cells (human) (UniProt P06756); assay: radiolabeled antibody binding on A375S2 cells (n = 2)
[8] = target: alpha V integrins (αvβ3 and αvβ5) on human cells (human) (UniProt P06756); assay: flow cytometry on M21 cells; labeled CNTO95 2 µg/mL; competitor LM609 (anti-αvβ3) 20 µg/mL; set-up: % Positive: reference not given here
[9] = target: alpha V integrins (αvβ3 and αvβ5) on human cells (human) (UniProt P06756); assay: 125-I antibody saturation binding on M21 cells (n = 8)
[10] = target: alpha V integrins (αvβ3 and αvβ5) on human cells (human) (UniProt P06756); assay: flow cytometry on M21 cells; labeled CNTO95 20 µg/mL; competitor VNR139 (anti-αv) 20 µg/mL
[11] = target: alpha V integrins (αvβ3 and αvβ5) on human cells (human) (UniProt P06756); assay: flow cytometry on M21 cells; labeled CNTO95 2 µg/mL; competitor VNR139 (anti-αv) 20 µg/mL
[12] = target: alpha V integrins (αvβ3 and αvβ5) on human cells (human) (UniProt P06756); assay: 125-I antibody saturation binding on A375S2 cells (n = 5)
[13] = target: alpha V integrins (αvβ3 and αvβ5) on human cells (human) (UniProt P06756); assay: flow cytometry on M21 cells; labeled CNTO95 20 µg/mL; competitor m7E3 IgG 20 µg/mL
[14] = target: alpha V integrins (αvβ3 and αvβ5) on human cells (human) (UniProt P06756); assay: flow cytometry on M21 cells; labeled CNTO95 20 µg/mL; competitor anti-β3 (Chemicon) 20 µg/mL
[15] = target: alpha V integrins (αvβ3 and αvβ5) on human cells (human) (UniProt P06756); assay: 125-I antibody binding on A375S2 and M21 cells, rounded summary
[16] = target: alpha V integrins (αvβ3 and αvβ5) on human cells (human) (UniProt P06756); assay: 125-I antibody saturation binding on A375S2 cells (n = 7)
[17] = target: alpha V integrins (αvβ3 and αvβ5) on human cells (human) (UniProt P06756); assay: flow cytometry on M21 cells; labeled CNTO95 20 µg/mL; competitor LM609 (anti-αvβ3) 20 µg/mL
[18] = target: alpha V integrins (αvβ3 and αvβ5) on human cells (human) (UniProt P06756); assay: flow cytometry on M21 cells; labeled CNTO95 2 µg/mL; competitor m7E3 IgG 20 µg/mL; set-up: % Positive: reference not given here
[19] = target: alpha V integrins (αvβ3 and αvβ5) on human cells (human) (UniProt P06756); assay: flow cytometry on M21 cells; labeled CNTO95 20 µg/mL; competitor anti-β3 (AMAC) 20 µg/mL
[20] = target: alpha V integrins (αvβ3 and αvβ5) on human cells (human) (UniProt P06756); assay: flow cytometry on M21 cells; labeled CNTO95 2 µg/mL; competitor P1F6 (anti-αvβ5) 20 µg/mL; set-up: % Positive: reference not given here
[21] = target: alpha V integrins (αvβ3 and αvβ5) on human cells (human) (UniProt P06756); assay: flow cytometry on M21 cells; labeled CNTO95 20 µg/mL; no competitor (saline)
[22] = target: alpha V integrins (αvβ3 and αvβ5) on human cells (human) (UniProt P06756); assay: flow cytometry on M21 cells; labeled CNTO95 2 µg/mL; no competitor (saline)
[23] = target: alpha V integrins (αvβ3 and αvβ5) on human cells (human) (UniProt P06756); assay: 125-I antibody saturation binding on M21 cells (n = 4)
[24] = target: alpha V integrins (αvβ3 and αvβ5) on human cells (human) (UniProt P06756); assay: flow cytometry on M21 cells; labeled CNTO95 2 µg/mL; competitor anti-β3 (Chemicon) 20 µg/mL
[25] = target: alpha V integrins (αvβ3 and αvβ5) on human cells (human) (UniProt P06756); assay: flow cytometry on M21 cells; labeled CNTO95 2 µg/mL; competitor anti-β3 (AMAC) 20 µg/mL
[26] = target: alpha V integrins (αvβ3 and αvβ5) on human cells (human) (UniProt P06756); assay: flow cytometry on M21 cells; labeled CNTO95 20 µg/mL; competitor P1F6 (anti-αvβ5) 20 µg/mL

Chain of αvβ5 integrin on human cells (human) (P06756 31-1048, chain 1 of 2): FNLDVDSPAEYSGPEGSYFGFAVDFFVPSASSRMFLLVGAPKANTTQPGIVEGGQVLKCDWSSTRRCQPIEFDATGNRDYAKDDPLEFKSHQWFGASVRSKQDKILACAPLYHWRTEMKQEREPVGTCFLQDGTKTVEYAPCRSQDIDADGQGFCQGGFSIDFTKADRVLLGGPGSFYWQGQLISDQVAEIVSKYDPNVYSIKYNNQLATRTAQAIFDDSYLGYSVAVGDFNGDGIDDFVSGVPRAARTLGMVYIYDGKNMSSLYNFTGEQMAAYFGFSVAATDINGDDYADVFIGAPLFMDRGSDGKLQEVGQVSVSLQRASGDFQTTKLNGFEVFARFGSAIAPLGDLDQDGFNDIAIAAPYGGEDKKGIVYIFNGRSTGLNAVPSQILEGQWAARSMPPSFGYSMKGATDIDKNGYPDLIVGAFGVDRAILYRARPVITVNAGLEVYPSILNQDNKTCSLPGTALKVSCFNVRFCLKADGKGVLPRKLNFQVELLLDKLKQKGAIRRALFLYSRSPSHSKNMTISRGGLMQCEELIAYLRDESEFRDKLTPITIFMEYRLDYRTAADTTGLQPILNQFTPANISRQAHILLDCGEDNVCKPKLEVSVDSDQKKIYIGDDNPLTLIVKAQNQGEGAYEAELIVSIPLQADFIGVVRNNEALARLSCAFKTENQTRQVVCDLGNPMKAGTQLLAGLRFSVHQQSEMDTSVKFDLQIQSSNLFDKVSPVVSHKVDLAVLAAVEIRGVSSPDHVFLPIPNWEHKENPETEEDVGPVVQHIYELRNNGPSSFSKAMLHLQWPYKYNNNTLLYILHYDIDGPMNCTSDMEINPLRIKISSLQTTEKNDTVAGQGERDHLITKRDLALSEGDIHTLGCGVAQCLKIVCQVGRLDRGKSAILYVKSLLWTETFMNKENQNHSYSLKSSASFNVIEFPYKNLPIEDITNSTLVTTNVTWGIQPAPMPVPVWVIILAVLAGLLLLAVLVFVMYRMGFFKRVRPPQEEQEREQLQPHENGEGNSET
Chain of αvβ5 integrin on human cells (human) (P18084 24-799, chain 2 of 2, further chain): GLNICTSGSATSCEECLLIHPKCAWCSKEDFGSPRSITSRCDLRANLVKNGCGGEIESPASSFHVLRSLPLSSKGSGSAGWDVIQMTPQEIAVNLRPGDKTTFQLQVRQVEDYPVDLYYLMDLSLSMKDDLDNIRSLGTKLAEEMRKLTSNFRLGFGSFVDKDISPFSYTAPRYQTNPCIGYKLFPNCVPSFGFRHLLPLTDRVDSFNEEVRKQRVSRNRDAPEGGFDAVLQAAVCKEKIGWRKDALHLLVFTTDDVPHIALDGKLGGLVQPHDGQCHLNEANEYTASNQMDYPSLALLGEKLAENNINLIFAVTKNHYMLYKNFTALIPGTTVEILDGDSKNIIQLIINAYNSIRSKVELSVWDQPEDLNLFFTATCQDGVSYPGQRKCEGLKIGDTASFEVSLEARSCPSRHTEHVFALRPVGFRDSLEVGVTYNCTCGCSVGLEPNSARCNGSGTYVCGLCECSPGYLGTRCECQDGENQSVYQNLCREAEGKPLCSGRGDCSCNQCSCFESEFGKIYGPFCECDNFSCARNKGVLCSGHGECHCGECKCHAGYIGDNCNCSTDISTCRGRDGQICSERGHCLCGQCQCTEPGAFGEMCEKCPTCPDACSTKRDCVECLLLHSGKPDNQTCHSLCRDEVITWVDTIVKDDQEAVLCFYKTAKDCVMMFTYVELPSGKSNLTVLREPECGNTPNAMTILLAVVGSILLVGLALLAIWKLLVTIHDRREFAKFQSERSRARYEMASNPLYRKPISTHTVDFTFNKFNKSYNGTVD
Chain of αvβ3 integrin on human cells (human) (P06756 31-1048, chain 1 of 2): as the sequence (P06756 31-1048, chain 1 of 2) above
Chain of αvβ3 integrin on human cells (human) (P05106 27-788, chain 2 of 2, further chain): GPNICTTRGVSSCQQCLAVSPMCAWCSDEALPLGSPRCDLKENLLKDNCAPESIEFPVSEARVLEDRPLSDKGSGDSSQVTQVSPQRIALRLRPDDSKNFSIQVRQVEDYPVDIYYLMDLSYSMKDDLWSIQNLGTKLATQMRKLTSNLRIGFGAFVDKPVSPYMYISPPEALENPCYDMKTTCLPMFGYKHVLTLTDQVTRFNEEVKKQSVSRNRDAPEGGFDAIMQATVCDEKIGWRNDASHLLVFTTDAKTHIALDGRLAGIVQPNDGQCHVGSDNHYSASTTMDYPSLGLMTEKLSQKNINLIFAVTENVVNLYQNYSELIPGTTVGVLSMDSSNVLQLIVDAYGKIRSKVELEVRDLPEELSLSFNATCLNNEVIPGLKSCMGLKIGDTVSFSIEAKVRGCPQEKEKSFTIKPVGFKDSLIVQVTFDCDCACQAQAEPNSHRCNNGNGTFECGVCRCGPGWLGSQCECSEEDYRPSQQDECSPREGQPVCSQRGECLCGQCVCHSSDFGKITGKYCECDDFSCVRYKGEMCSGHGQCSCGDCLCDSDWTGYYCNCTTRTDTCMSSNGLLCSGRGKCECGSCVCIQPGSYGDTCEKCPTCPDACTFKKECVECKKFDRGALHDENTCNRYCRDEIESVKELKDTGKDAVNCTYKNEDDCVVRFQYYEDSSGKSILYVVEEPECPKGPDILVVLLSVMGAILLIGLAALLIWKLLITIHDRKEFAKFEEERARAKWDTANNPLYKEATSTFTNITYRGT

Question: What does the source list for Human IgG (negative control) (antibody)?
Answer: A375S.2 cell adhesion to fibrin, % of no-antibody control (10 µg/ml) [1]: 99.5%; A375S.2 cell adhesion to fibrinogen, % of no-antibody control (10 µg/ml) [1]: 102%; A375S.2 cell adhesion to fibronectin, % of no-antibody control (10 µg/ml) [1]: 100%; A375S.2 cell adhesion to gelatin, % of no-antibody control (10 µg/ml) [1]: 94.6%; A375S.2 cell adhesion to type I collagen, % of no-antibody control (10 µg/ml) [1]: 99.1%; A375S.2 cell adhesion to vitronectin, % of no-antibody control (10 µg/ml) [1]: 104%; HUVEC adhesion to fibrin, % of no-antibody control (10 µg/ml) [1]: 99.7%; HUVEC adhesion to fibrinogen, % of no-antibody control (10 µg/ml) [1]: 108%; HUVEC adhesion to fibronectin, % of no-antibody control (10 µg/ml) [1]: 96.8%; HUVEC adhesion to gelatin, % of no-antibody control (10 µg/ml) [1]: 109%; HUVEC adhesion to type I collagen, % of no-antibody control (10 µg/ml) [1]: 99.3%; HUVEC adhesion to vitronectin, % of no-antibody control (10 µg/ml) [1]: 96.3%

Question: With P1F6 (murine anti-human αvβ5 antibody) as the substance, how does the Receptors per cell (receptors/cell) [2] read?
Answer: 44000

Question: What about the Receptors per cell (receptors/cell) [3] of the same substance?
Answer: 70000

Question: And the A375S.2 cell adhesion to fibrin, % of no-antibody control (10 µg/ml) [4]?
Answer: 92.9%

Question: And the A375S.2 cell adhesion to fibrinogen, % of no-antibody control (10 µg/ml) [4]?
Answer: 99.4%

Question: What about the A375S.2 cell adhesion to fibronectin, % of no-antibody control (10 µg/ml) [4] of the same substance?
Answer: 101%

Question: And the A375S.2 cell adhesion to gelatin, % of no-antibody control (10 µg/ml) [4]?
Answer: 87.4%

Question: And the A375S.2 cell adhesion to type I collagen, % of no-antibody control (10 µg/ml) [4]?
Answer: 101%

Question: And the A375S.2 cell adhesion to vitronectin, % of no-antibody control (10 µg/ml) [4]?
Answer: 28.5%

Question: And the HUVEC adhesion to fibrin, % of no-antibody control (10 µg/ml) [4]?
Answer: 96.7%

Question: What about the HUVEC adhesion to fibrinogen, % of no-antibody control (10 µg/ml) [4] of the same substance?
Answer: 94.5%

Question: What about the HUVEC adhesion to fibronectin, % of no-antibody control (10 µg/ml) [4] of the same substance?
Answer: 103%

Question: And the HUVEC adhesion to gelatin, % of no-antibody control (10 µg/ml) [4]?
Answer: 94.4%

Question: And the HUVEC adhesion to type I collagen, % of no-antibody control (10 µg/ml) [4]?
Answer: 116%

Question: And the HUVEC adhesion to vitronectin, % of no-antibody control (10 µg/ml) [4]?
Answer: 39.8%

Question: And the Receptors per cell (receptors/cell) [5]?
Answer: 73000

Question: For “LM609 (murine anti-human αvβ3 antibody, Chemicon)”, which A375S.2 cell adhesion to fibrin, % of no-antibody control (10 µg/ml) [6] is on record?
Answer: 50%

Question: And the A375S.2 cell adhesion to fibrinogen, % of no-antibody control (10 µg/ml) [6]?
Answer: 14%

Question: And the A375S.2 cell adhesion to fibronectin, % of no-antibody control (10 µg/ml) [6]?
Answer: 104%

Question: What about the A375S.2 cell adhesion to gelatin, % of no-antibody control (10 µg/ml) [6] of the same substance?
Answer: 25.2%

Question: What about the A375S.2 cell adhesion to type I collagen, % of no-antibody control (10 µg/ml) [6] of the same substance?
Answer: 100%

Question: What about the A375S.2 cell adhesion to vitronectin, % of no-antibody control (10 µg/ml) [6] of the same substance?
Answer: 42.1%

Question: And the HUVEC adhesion to fibrin, % of no-antibody control (10 µg/ml) [6]?
Answer: 48.1%

Question: What about the HUVEC adhesion to fibrinogen, % of no-antibody control (10 µg/ml) [6] of the same substance?
Answer: 14.3%

Question: And the HUVEC adhesion to fibronectin, % of no-antibody control (10 µg/ml) [6]?
Answer: 103%

Question: What about the HUVEC adhesion to gelatin, % of no-antibody control (10 µg/ml) [6] of the same substance?
Answer: 36.5%

Question: And the HUVEC adhesion to type I collagen, % of no-antibody control (10 µg/ml) [6]?
Answer: 109%

Question: What about the HUVEC adhesion to vitronectin, % of no-antibody control (10 µg/ml) [6] of the same substance?
Answer: 26.3%

Question: And the Receptors per cell (receptors/cell) [7]?
Answer: 300000

Question: Which % Positive [8] does the source give for CNTO 95 (antibody) here?
Answer: 110%

Question: What about the MCF (Median Channel Fluorescence) [8] of the same substance?
Answer: 4.78

Question: What about the Receptors per cell (receptors/cell) [9] of the same substance?
Answer: 200000

Question: What about the % Positive [10] of the same substance?
Answer: 104%

Question: And the MCF (Median Channel Fluorescence) [10]?
Answer: 14.9

Question: What about the % Positive [11] of the same substance?
Answer: 106%

Question: What about the MCF (Median Channel Fluorescence) [11] of the same substance?
Answer: 4.61

Question: What about the Kd [12] of the same substance?
Answer: 5.2 nM

Question: And the % Positive [13]?
Answer: 103%

Question: And the MCF (Median Channel Fluorescence) [13]?
Answer: 14.7

Question: And the % Positive [14]?
Answer: 91%

Question: What about the MCF (Median Channel Fluorescence) [14] of the same substance?
Answer: 13.1

Question: What about the Kd [15] of the same substance?
Answer: 7 nM

Question: What about the Receptors per cell (receptors/cell) [16] of the same substance?
Answer: 120000

Question: And the % Positive [17]?
Answer: 93%

Question: And the MCF (Median Channel Fluorescence) [17]?
Answer: 13.3

Question: And the % Positive [18]?
Answer: 132%

Question: What about the MCF (Median Channel Fluorescence) [18] of the same substance?
Answer: 5.73

Question: What about the A375S.2 cell adhesion to fibrin, % of no-antibody control (10 µg/ml) [1] of the same substance?
Answer: 43.3%

Question: What about the A375S.2 cell adhesion to fibrinogen, % of no-antibody control (10 µg/ml) [1] of the same substance?
Answer: 11.4%

Question: What about the A375S.2 cell adhesion to fibronectin, % of no-antibody control (10 µg/ml) [1] of the same substance?
Answer: 103%

Question: What about the A375S.2 cell adhesion to gelatin, % of no-antibody control (10 µg/ml) [1] of the same substance?
Answer: 23.2%

Question: And the A375S.2 cell adhesion to type I collagen, % of no-antibody control (10 µg/ml) [1]?
Answer: 104%

Question: And the A375S.2 cell adhesion to vitronectin, % of no-antibody control (10 µg/ml) [1]?
Answer: 1.4%

Question: What about the HUVEC adhesion to fibrin, % of no-antibody control (10 µg/ml) [1] of the same substance?
Answer: 45.1%

Question: And the HUVEC adhesion to fibrinogen, % of no-antibody control (10 µg/ml) [1]?
Answer: 34.5%

Question: And the HUVEC adhesion to fibronectin, % of no-antibody control (10 µg/ml) [1]?
Answer: 102%

Question: And the HUVEC adhesion to gelatin, % of no-antibody control (10 µg/ml) [1]?
Answer: 54.8%

Question: And the HUVEC adhesion to type I collagen, % of no-antibody control (10 µg/ml) [1]?
Answer: 97.7%

Question: And the HUVEC adhesion to vitronectin, % of no-antibody control (10 µg/ml) [1]?
Answer: 3.3%

Question: What about the % Positive [19] of the same substance?
Answer: 91%

Question: What about the MCF (Median Channel Fluorescence) [19] of the same substance?
Answer: 13.1

Question: And the % Positive [20]?
Answer: 112%

Question: And the MCF (Median Channel Fluorescence) [20]?
Answer: 4.87

Question: What about the % Positive [21] of the same substance?
Answer: 100%

Question: And the MCF (Median Channel Fluorescence) [21]?
Answer: 14.3

Question: And the % Positive [22]?
Answer: 100%

Question: What about the MCF (Median Channel Fluorescence) [22] of the same substance?
Answer: 4.33

Question: What about the Kd [23] of the same substance?
Answer: 8.5 nM

Question: What about the % Positive [24] of the same substance?
Answer: 125%

Question: What about the MCF (Median Channel Fluorescence) [24] of the same substance?
Answer: 5.42

Question: And the % Positive [25]?
Answer: 106%

Question: And the MCF (Median Channel Fluorescence) [25]?
Answer: 4.61

Question: And the % Positive [26]?
Answer: 101%

Question: What about the MCF (Median Channel Fluorescence) [26] of the same substance?
Answer: 14.5

— patent US20040185507A1
